The record followed here is US20150152166A1 (THERACLONE SCIENCES, published 2015).

Where only a bound is given, the exact number is not on record here.

Experiment [1] has as its target T1, CMV gp116 epitope AD2 site peptide SHRANETIYNTTLKYGDTTGTNTTK (CMV (human cytomegalovirus), not fully specified).
T1 construct: Synthetic polypeptide corresponding to the AD2 site of gp116 (glycoprotein B); A biotinylated form was used to select B cells; also called CMV gp116 AD2 peptide
T1 peptide: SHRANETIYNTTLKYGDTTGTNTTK
Briefly: kinetic affinity measurement, method not stated; antigen taken as AD2 peptide; same value as r13, table re-sorted by koff.

The target of experiment [2] is GPCMV gB (glycoprotein B of guinea pig CMV strain V545/82) (guinea pig cytomegalovirus). Briefly: cell-based or functional assay.
For experiment [3], the target named is T1, CMV gp116 epitope AD2 site peptide …. In words: kinetic affinity measurement, method not stated; antigen taken as CMV gp116 AD2 peptide.
The target is the same in experiment [4]. Briefly: kinetic affinity measurement, method not stated; antigen taken as AD2 peptide; same value as r8, table re-sorted by koff.
Experiment [5] shares this target. Briefly: kinetic affinity measurement, method not stated; antigen taken as AD2 peptide; same value as r9, table re-sorted by koff.
Experiment [6] shares this target. In words: kinetic affinity measurement, method not stated; antigen taken as AD2 peptide; same value as r12, table re-sorted by koff.

B1: 2N9 human anti-CMV antibody (antibody, V domains shown)
VH: QVQLVESGGGVVQPGRSLRLSCAASGFTFSSNGIHWVRQAPGKGLDWVAVISSDANDKQYADSVKGRFTISRDNSKNMVYLQMNSLRVEDTAVYFCARDGTCSGGNCYSGLIDYWGRGILVTVSS
VL: EIVLTQSPATLSLSPGERATLSCRASQSVGGYLAWYQQKPGQAPRLLIYDASIRATGIPARFSGSGSGTDFTLTISSLEPEDFAVYYCHQRSNWPPLTFGGGTKVDIKR
notes: Recombinant human IgG, gamma heavy and kappa light chain; (MDMR); If the listing entry has two more residues, the range shifts by 2; also called TCN-202; mAb C-2N9
By Kd is commonly meant the concentration at which binding is half-saturated. The low end stands for tighter binding, the high end for weaker binding. One may read the koff as a measure of how fast the partners let go of each other. Broadly, the kon is a measure of how fast the partners come together. In experiment [1], B1 registered a Kd of 11.6 nM, a koff of 0.03 s⁻¹ and an on-rate constant (kon) of 2.6e+06 M⁻¹ s⁻¹. For the same molecule, in experiment [2], the “neutralization of GPCMV V545/82 entry into JH4 cells; highest concentration tested without effect” value was above 300 ng/mL. In experiment [3], this molecule gave a Kd of 11.6 nM, an off-rate (koff) of 0.03 s⁻¹ and a kon of 2.6e+06 M⁻¹ s⁻¹.

B2: 2F10 human anti-CMV antibody (antibody, V domains shown)
VH: QVHLVESGGGVVQPGRALRLSCAATGFTFSNHGIHWVRQAPGKGLEWLAVISSDGDDDRYADSVKGRFSVSRDNSKNTVHLQMNGLRPDDTAIYFCARDGRCGEPKCYSGLPDYWGRGTLVTVSS
VL: EIVLTQSPATLSLSPGDRATLSCRASQSVGGYLAWYQQKPGQAPRLLLYDASNRATGIPARFSGSGSGTDFTLTISSLEPEDFALYYCLQRNTWPPLTFGGGTKVEIKR
notes: Recombinant human IgG, gamma heavy and kappa light chain, made by transient transfection of 293 cells; also called mAb A-2F10
Regarding B2, the “neutralization of GPCMV V545/82 entry into JH4 cells; highest concentration tested without effect” value in experiment [2] was above 300 ng/mL. Besides, in experiment [4], the equilibrium dissociation constant (Kd) turned out to be 1.98 nM, the koff turned out to be 0.00111 s⁻¹ and the kon stood at 562000 M⁻¹ s⁻¹. In experiment [3], the Kd worked out at 1.98 nM, the off-rate constant (koff) was 0.00111 s⁻¹ and the kon amounted to 562000 M⁻¹ s⁻¹.

B3: 5P9 human anti-CMV antibody (antibody, V domains shown)
VH: QVQLVESGGGVIQPGRSLRLSCVASKFIFSNHGIHWVRQAPGKGLEWVAVISKDGTNAHYADSVRGRFSISRDNSKDTVFLEMRSLRPEDTAVYYCAREGRCIEEKCYSGQIDYWGQGSLVTVSS
VL: EILLTQSPATLSLSPGERATLSCRASQSVGRYMAWYQQRPGQAPRLLIYDASIRATGIPARFSGSGSGTDFTLTISSLQTEDFAIYYCQQRSSWPPLTFGGGTKVEIKR
notes: Recombinant human IgG, gamma heavy and kappa light chain; also called mAb E-5P9
As to B3, in experiment [2], the “neutralization of GPCMV V545/82 entry into JH4 cells; highest concentration tested without effect” value is above 300 ng/mL. For the same molecule, in experiment [5], the Kd came out at 4.9 nM, the off-rate (koff) is 0.00121 s⁻¹ and the on-rate constant (kon) was 245000 M⁻¹ s⁻¹. In addition, in experiment [3], binding was put at a Kd of 4.9 nM, the koff was 0.00121 s⁻¹ and the on-rate (kon) was 245000 M⁻¹ s⁻¹.

B4: 4P12 human anti-CMV antibody (antibody, V domains shown)
VH: QVQLVESGGGVIQPGRSLRLSCVASKFIFSNHGIHWVRQAPGKGLEWVAVISKDGTNAHYADSVRGRFSISRDNSKDTVFLEMRSLRPEDTAVYYCAREGRCIEENCYSGQIDYWGQGSLVTVSS
VL: EILLTQSPATLSLSPGERATLSCRASQSVGRYMAWYQQRPGQAPRLLIYDASIRATGIPARFSGSGSGTDFTLTISSLQPEDFAIYYCQQRSSWPPLTFGGGTKVEIKR
notes: Recombinant human IgG, gamma heavy and kappa light chain; also called mAb D-4P12
Consider B4, for which the “neutralization of GPCMV V545/82 entry into JH4 cells; highest concentration tested without effect” value in experiment [2] was above 300 ng/mL. Further, in experiment [6], binding was put at a Kd of 10.9 nM, the koff worked out at 0.0019 s⁻¹ and the kon is 175000 M⁻¹ s⁻¹. In experiment [3], this molecule registered a Kd of 10.9 nM, a dissociation rate constant (koff) of 0.0019 s⁻¹ and a kon of 175000 M⁻¹ s⁻¹.
